Source: the Human Domainome abundance scans (Beltran et al. 2025)
± gives the uncertainty stated by the source.

B1: Tripartite motif-containing protein 6, residues 93 to 134; numbered along this chain, Q9C030 (parent)
chain: KAVLCADHGEKLQLFCQEDGKVICWLCERSQEHRGHHTFLVE

Variants of: B1
Experiment: abundance fitness (aPCA) (normalised: wild type 0, dead -1); higher = more abundant; growth selection in yeast, the domain comes from the species named
Conditions: Homo sapiens

With KAVLCADHGEKLQLFCQEDGKVICWLCERSQEHRLHHTFLVE [G35L] as the variant, how does the abundance fitness read?
The abundance fitness was -0.202 ± 0.065.

Which abundance fitness does the source give for KAVLCADHGEKLQLFCQEDGKVICWLCERSQEHRIHHTFLVE [G35I] here?
Its abundance fitness is -0.377 ± 0.38.

For KAVLCADHGEKLQLFCQEDGKVICWLCERSQEHRSHHTFLVE [G35S], which abundance fitness is on record?
Its abundance fitness is -0.096 ± 0.058.

With KAVLCADHGEKLQLFCQEDGKVICWLCERSQEHRDHHTFLVE [G35D] as the variant, how does the abundance fitness read?
Its abundance fitness is 0.022 ± 0.15.

Which abundance fitness does the source give for KAVLCADHGEKLQLFCQEDGKVICWLCERSQEHRMHHTFLVE [G35M] here?
Its abundance fitness is -0.397 ± 0.094.

Which abundance fitness does the source give for KAVLCADHGEKLQLFCQEDGKVICWLCERSQEHRVHHTFLVE [G35V] here?
Its abundance fitness is -0.41 ± 0.064.

For KAVLCADHGEKLQLFCQEDGKVICWLCERSQEHRTHHTFLVE [G35T], which abundance fitness is on record?
Its abundance fitness is -0.079 ± 0.073.

With KAVLCADHGEKLQLFCQEDGKVICWLCERSQEHRQHHTFLVE [G35Q] as the variant, how does the abundance fitness read?
The abundance fitness was -0.215 ± 0.074.

With KAVLCADHGEKLQLFCQEDGKVICWLCERSQEHRWHHTFLVE [G35W] as the variant, how does the abundance fitness read?
Its abundance fitness is -0.377 ± 0.061.

Which abundance fitness does the source give for KAVLCADHGEKLQLFCQEDGKVICWLCERSQEHRRHHTFLVE [G35R] here?
The abundance fitness was -0.195 ± 0.053.

For KAVLCADHGEKLQLFCQEDGKVICWLCERSQEHRKHHTFLVE [G35K], which abundance fitness is on record?
Its abundance fitness is -0.244 ± 0.19.

For KAVLCADHGEKLQLFCQEDGKVICWLCERSQEHRAHHTFLVE [G35A], which abundance fitness is on record?
Its abundance fitness is -0.116 ± 0.05.

With KAVLCADHGEKLQLFCQEDGKVICWLCERSQEHRPHHTFLVE [G35P] as the variant, how does the abundance fitness read?
The abundance fitness was -0.366 ± 0.1.

Which abundance fitness does the source give for KAVLCADHGEKLQLFCQEDGKVICWLCERSQEHRGHLTFLVE [H37L] here?
Its abundance fitness is -0.431 ± 0.2.

For KAVLCADHGEKLQLFCQEDGKVICWLCERSQEHRGHSTFLVE [H37S], which abundance fitness is on record?
The abundance fitness was -0.123 ± 0.17.

Which abundance fitness does the source give for KAVLCADHGEKLQLFCQEDGKVICWLCERSQEHRGHVTFLVE [H37V] here?
Its abundance fitness is -0.265 ± 0.46.

With KAVLCADHGEKLQLFCQEDGKVICWLCERSQEHRGHRTFLVE [H37R] as the variant, how does the abundance fitness read?
Its abundance fitness is 0.002 ± 0.079.

Which abundance fitness does the source give for KAVLCADHGEKLQLFCQEDGKVICWLCERSQEHRGHFTFLVE [H37F] here?
The abundance fitness was 0.117 ± 0.2.

With KAVLCADHGEKLQLFCQEDGKVICWLCERSQEHRGHCTFLVE [H37C] as the variant, how does the abundance fitness read?
Its abundance fitness is -0.17 ± 0.13.

With KAVLCADHGEKLQLFCQEDGKVICWLCERSQEHRGHITFLVE [H37I] as the variant, how does the abundance fitness read?
Its abundance fitness is -0.032 ± 0.29.

For KAVLCADHGEKLQLFCQEDGKVICWLCERSQEHRGHWTFLVE [H37W], which abundance fitness is on record?
The abundance fitness was -0.503 ± 0.13.

Which abundance fitness does the source give for KAVLCADHGEKLQLFCQEDGKVICWLCERSQEHRGHHTFLQE [V41Q] here?
Its abundance fitness is 0.259 ± 0.1.

For KAVLCADHGEKLQLFCQEDGKVICWLCERSQEHRGHHTFLAE [V41A], which abundance fitness is on record?
Its abundance fitness is 0.16 ± 0.054.

For KAVLCADHGEKLQLFCQEDGKVICWLCERSQEHRGHHTFLEE [V41E], which abundance fitness is on record?
The abundance fitness was 0.029 ± 0.094.

For KAVLCADHGEKLQLFCQEDGKVICWLCERSQEHRGHHTFLPE [V41P], which abundance fitness is on record?
The abundance fitness was 0.036 ± 0.13.

For KAVLCADHGEKLQLFCQEDGKVICWLCERSQEHRGHHTFLWE [V41W], which abundance fitness is on record?
Its abundance fitness is -0.043 ± 0.076.

With KAVLCADHGEKLQLFCQEDGKVICWLCERSQEHRGHHTFLME [V41M] as the variant, how does the abundance fitness read?
The abundance fitness was -0.143 ± 0.16.

With KAVLCADHGEKLQLFCQEDGKVICWLCERSQEHRGHHTFLTE [V41T] as the variant, how does the abundance fitness read?
The abundance fitness was 0.064 ± 0.072.

For KAVLCADHGEKLQLFCQEDGKVICWLCERSQEHRGHHTFLLE [V41L], which abundance fitness is on record?
Its abundance fitness is -0.034 ± 0.37.

Which abundance fitness does the source give for KAVLCADHGEKLQLFCQEDGKVICWLCERSQEHRGHHTFLRE [V41R] here?
Its abundance fitness is 0.149 ± 0.057.

With KAVLCADHGEKLQLFCQEDGKVICWLCERSQEHRGHHTFLGE [V41G] as the variant, how does the abundance fitness read?
The abundance fitness was -0.11 ± 0.088.

Which abundance fitness does the source give for KAVLCADHGEKLQLFCQEDGKVICWLCERSQEHRGHHTFLCE [V41C] here?
The abundance fitness was -0.165 ± 0.099.

With KAVLCADHGEKLQLFCQEDGKVICWLCERSQEHRGHHTFLNE [V41N] as the variant, how does the abundance fitness read?
Its abundance fitness is 0.041 ± 0.17.

For KAVLCADHGEKLQLFCQEDGKVICWLCERSQEHRGHHTFLIE [V41I], which abundance fitness is on record?
Its abundance fitness is -0.246 ± 0.13.

Which abundance fitness does the source give for KAVLCADHGEKLQLFCQEDGKVICWLCERSQEHRGHHTFLSE [V41S] here?
The abundance fitness was -0.051 ± 0.076.

With KAVLCADHGEKLQLFCQEDGKVICWLCERSQEHRGMHTFLVE [H36M] as the variant, how does the abundance fitness read?
Its abundance fitness is -0.606 ± 0.15.

With KAVLCADHGEKLQLFCQEDGKVICWLCERSQEHRGYHTFLVE [H36Y] as the variant, how does the abundance fitness read?
Its abundance fitness is -1.03 ± 0.34.

With KAVLCADHGEKLQLFCQEDGKVICWLCERSQEHRGRHTFLVE [H36R] as the variant, how does the abundance fitness read?
The abundance fitness was -0.481 ± 0.052.

Which abundance fitness does the source give for KAVLCADHGEKLQLFCQEDGKVICWLCERSQEHRGSHTFLVE [H36S] here?
Its abundance fitness is -0.365 ± 0.077.

With KAVLCADHGEKLQLFCQEDGKVICWLCERSQEHRGKHTFLVE [H36K] as the variant, how does the abundance fitness read?
The abundance fitness was -0.558 ± 0.096.

With KAVLCADHGEKLQLFCQEDGKVICWLCERSQEHRGEHTFLVE [H36E] as the variant, how does the abundance fitness read?
Its abundance fitness is -0.355 ± 0.072.

With KAVLCADHGEKLQLFCQEDGKVICWLCERSQEHRGQHTFLVE [H36Q] as the variant, how does the abundance fitness read?
Its abundance fitness is -0.303 ± 0.13.

Which abundance fitness does the source give for KAVLCADHGEKLQLFCQEDGKVICWLCERSQEHRGGHTFLVE [H36G] here?
The abundance fitness was -0.442 ± 0.047.

With KAVLCADHGEKLQLFCQEDGKVICWLCERSQEHRGLHTFLVE [H36L] as the variant, how does the abundance fitness read?
Its abundance fitness is -0.523 ± 0.074.

With KAVLCADHGEKLQLFCQEDGKVICWLCERSQEHRGWHTFLVE [H36W] as the variant, how does the abundance fitness read?
Its abundance fitness is -0.781 ± 0.071.

Which abundance fitness does the source give for KAVLCADHGEKLQLFCQEDGKVICWLCERSQEHRGAHTFLVE [H36A] here?
The abundance fitness was -0.472 ± 0.055.

For KAVLCADHGEKLQLFCQEDGKVICWLCERSQEHRGDHTFLVE [H36D], which abundance fitness is on record?
The abundance fitness was -0.399 ± 0.11.

Which abundance fitness does the source give for KAVLCADHGEKLQLFCQEDGKVICWLCERSQEHRGHHTFTVE [L40T] here?
Its abundance fitness is 0.041 ± 0.085.

Which abundance fitness does the source give for KAVLCADHGEKLQLFCQEDGKVICWLCERSQEHRGHHTFDVE [L40D] here?
The abundance fitness was 0.091 ± 0.17.

For KAVLCADHGEKLQLFCQEDGKVICWLCERSQEHRGHHTFCVE [L40C], which abundance fitness is on record?
The abundance fitness was -0.188 ± 0.13.

Which abundance fitness does the source give for KAVLCADHGEKLQLFCQEDGKVICWLCERSQEHRGHHTFVVE [L40V] here?
The abundance fitness was -0.072 ± 0.068.

For KAVLCADHGEKLQLFCQEDGKVICWLCERSQEHRGHHTFNVE [L40N], which abundance fitness is on record?
Its abundance fitness is 0.115 ± 0.13.

With KAVLCADHGEKLQLFCQEDGKVICWLCERSQEHRGHHTFGVE [L40G] as the variant, how does the abundance fitness read?
The abundance fitness was 0.052 ± 0.076.

With KAVLCADHGEKLQLFCQEDGKVICWLCERSQEHRGHHTFAVE [L40A] as the variant, how does the abundance fitness read?
Its abundance fitness is 0.169 ± 0.073.

For KAVLCADHGEKLQLFCQEDGKVICWLCERSQEHRGHHTFKVE [L40K], which abundance fitness is on record?
The abundance fitness was -0.154 ± 0.2.

Which abundance fitness does the source give for KAVLCADHGEKLQLFCQEDGKVICWLCERSQEHRGHHTFEVE [L40E] here?
Its abundance fitness is 0.009 ± 0.19.

For KAVLCADHGEKLQLFCQEDGKVICWLCERSQEHRGHHTFHVE [L40H], which abundance fitness is on record?
Its abundance fitness is -0.062 ± 0.14.

Which abundance fitness does the source give for KAVLCADHGEKLQLFCQEDGKVICWLCERSQEHRGHHTFMVE [L40M] here?
The abundance fitness was 0.207 ± 0.1.

Which abundance fitness does the source give for KAVLCADHGEKLQLFCQEDGKVICWLCERSQEHRGHHTFQVE [L40Q] here?
Its abundance fitness is 0.224 ± 0.12.

Which abundance fitness does the source give for KAVLCADHGEKLQLFCQEDGKVICWLCERSQEHRGHHTFWVE [L40W] here?
The abundance fitness was -0.112 ± 0.14.
